Test results published in article PMC2712960.

Assays:
[1] = target: b6f complex with cytochrome b6 C35V (C. reinhardtii (endogenous)) (UniProt P23577); test: native gel or EMSA
[2] = target: b6f complex (monomer of 140 kD) (C. reinhardtii (endogenous)) (UniProt P23577); test: native gel or EMSA

“b6f complex with cytochrome b6 C35V (from UniProt P23577 32-317; Q00471 1-215; P23230 1-160)” showed a stoichiometry N [1] of 2.

For “b6f complex (monomer of 140 kD) (from UniProt P23577 32-317; Q00471 1-215; P23230 1-160)”, the stoichiometry N [2] was 2.
